Article PMC4148193, “Chromatin Insulator Factors Involved in Long-Range DNA Interactions and Their Role in the Folding of the Drosophila Genome” (PLoS Genetics, 2014)

Legend:
[1] = biological target: T1, CP190 (Drosophila, UniProt Q24478 1-1096); test: fluorescence anisotropy; Hill n=2±0.3; 20 uM ZnSO4; FA/FCS: 30 mM Tris/HCl pH 7.5, 100 mM NaCl, 20 uM ZnSO4, 5 mM mercaptoethanol, 0.01 mg/ml BSA, 0.004% Tween20, 2.5 nM DNA; EMSA: 150 mM NaCl, 30 mM Tris/HCl pH; conditions: protein: recombinant; tags: N-term 6xHis; blunt
T1 sequence: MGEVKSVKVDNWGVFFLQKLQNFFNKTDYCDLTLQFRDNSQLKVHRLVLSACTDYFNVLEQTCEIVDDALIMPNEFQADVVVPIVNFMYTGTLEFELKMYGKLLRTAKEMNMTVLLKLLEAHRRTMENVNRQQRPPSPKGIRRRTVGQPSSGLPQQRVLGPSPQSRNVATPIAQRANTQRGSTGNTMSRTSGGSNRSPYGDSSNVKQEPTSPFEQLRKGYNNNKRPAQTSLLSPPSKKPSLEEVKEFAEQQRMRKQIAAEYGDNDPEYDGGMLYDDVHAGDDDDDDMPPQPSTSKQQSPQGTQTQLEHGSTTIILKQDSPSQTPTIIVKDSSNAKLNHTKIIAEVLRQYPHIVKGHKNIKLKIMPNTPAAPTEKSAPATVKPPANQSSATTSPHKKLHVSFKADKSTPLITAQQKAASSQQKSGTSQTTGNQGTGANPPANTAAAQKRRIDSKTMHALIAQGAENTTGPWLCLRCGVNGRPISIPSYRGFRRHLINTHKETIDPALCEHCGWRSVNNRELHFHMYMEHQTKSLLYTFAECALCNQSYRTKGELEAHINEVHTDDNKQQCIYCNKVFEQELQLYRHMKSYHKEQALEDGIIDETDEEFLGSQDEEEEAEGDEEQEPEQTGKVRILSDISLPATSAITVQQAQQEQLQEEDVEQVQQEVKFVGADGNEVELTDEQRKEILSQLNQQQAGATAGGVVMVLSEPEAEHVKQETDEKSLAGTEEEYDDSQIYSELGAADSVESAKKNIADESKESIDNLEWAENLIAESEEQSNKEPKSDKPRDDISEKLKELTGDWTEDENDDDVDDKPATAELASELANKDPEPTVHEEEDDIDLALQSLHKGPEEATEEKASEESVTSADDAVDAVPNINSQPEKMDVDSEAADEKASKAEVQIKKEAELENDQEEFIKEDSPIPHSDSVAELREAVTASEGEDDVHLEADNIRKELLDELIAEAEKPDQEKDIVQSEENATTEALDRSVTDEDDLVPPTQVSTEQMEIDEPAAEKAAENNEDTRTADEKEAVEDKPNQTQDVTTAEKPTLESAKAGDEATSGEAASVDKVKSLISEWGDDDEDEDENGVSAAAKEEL

[2] = biological target: T2, BEAF32 (BEAF32B) (Drosophila, UniProt Q94513 1-282); test: fluorescence anisotropy; single-site fit; 20 uM ZnSO4; FA/FCS: 30 mM Tris/HCl pH 7.5, 100 mM NaCl, 20 uM ZnSO4, 5 mM mercaptoethanol, 0.01 mg/ml BSA, 0.004% Tween20, 2.5 nM DNA; EMSA: 150 mM NaCl, 30 mM Tris/HCl pH; conditions: protein: recombinant; tags: N-term MBP; C-term 6xHis; blunt
T2 sequence: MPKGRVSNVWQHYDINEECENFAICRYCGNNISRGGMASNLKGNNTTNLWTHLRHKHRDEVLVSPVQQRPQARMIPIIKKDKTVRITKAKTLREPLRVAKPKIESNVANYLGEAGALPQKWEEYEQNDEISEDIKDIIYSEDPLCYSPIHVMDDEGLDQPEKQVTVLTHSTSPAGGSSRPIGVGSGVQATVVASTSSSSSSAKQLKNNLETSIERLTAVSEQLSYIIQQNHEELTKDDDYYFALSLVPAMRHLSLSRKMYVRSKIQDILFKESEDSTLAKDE

[3] = biological target: the molecule itself; test: SEC; gel-filtration analysis of CP190-BTB/POZ; conditions not shown
[4] = biological target: T3, Chromator, full-length, His-tagged (Drosophila, UniProt Q86BS3 1-926); test: fluorescence polarisation; fluorescence anisotropy of CP190-BTB/POZ-Cy5 as reporter of Chromator binding; apparent affinity; conditions: both partners purified
T3 construct: Chromator (Chriz), Drosophila; amplified from S2 cell cDNA; also called Chriz; source: E. coli BL21 (DE3)-pLysS, purified
T3 sequence (looked up): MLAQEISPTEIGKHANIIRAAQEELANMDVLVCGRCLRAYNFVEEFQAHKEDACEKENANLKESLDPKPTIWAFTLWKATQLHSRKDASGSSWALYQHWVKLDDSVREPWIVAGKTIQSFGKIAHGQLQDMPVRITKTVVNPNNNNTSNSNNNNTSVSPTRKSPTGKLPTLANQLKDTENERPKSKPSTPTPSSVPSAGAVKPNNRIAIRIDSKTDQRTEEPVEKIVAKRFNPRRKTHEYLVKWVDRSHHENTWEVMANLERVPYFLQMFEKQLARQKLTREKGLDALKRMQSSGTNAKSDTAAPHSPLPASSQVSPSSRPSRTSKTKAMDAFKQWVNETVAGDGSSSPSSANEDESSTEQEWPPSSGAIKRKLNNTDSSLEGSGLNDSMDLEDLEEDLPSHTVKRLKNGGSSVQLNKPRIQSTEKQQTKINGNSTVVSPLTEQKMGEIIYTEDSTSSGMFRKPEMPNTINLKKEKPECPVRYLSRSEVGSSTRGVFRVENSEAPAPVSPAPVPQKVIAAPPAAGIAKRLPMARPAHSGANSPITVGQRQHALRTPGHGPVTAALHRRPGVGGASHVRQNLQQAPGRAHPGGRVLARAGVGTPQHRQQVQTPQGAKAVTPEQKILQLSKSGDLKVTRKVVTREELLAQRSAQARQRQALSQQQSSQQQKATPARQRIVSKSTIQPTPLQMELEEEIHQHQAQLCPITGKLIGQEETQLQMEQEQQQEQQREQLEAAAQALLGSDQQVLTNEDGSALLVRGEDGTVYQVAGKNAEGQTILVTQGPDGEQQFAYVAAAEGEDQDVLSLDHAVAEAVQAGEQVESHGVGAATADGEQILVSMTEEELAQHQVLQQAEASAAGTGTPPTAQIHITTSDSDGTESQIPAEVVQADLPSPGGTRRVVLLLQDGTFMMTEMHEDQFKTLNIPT

B1: DNANS (dsDNA)
DNA 1: GGACAGGTATTGTGCCATACTGACCACATCGTCTTGGTCTATAAGCTCCACGACATCC
DNA 2: GGATGTCGTGGAGCTTATAGACCAAGACGATGTGGTCAGTATGGCACAATACCTGTCC
[1]
  Kd: 109 ± 5 nM
[2]
  Kd: 165 ± 30 nM

B2: CP190-BTB/POZ (BTB/POZ domain of CP190), His-tagged (domain or fragment, Drosophila)
chain: MGEVKSVKVDNWGVFFLQKLQNFFNKTDYCDLTLQFRDNSQLKVHRLVLSACTDYFNVLEQTCEIVDDALIMPNEFQADVVVPIVNFMYTGTLEFELKMYGKLLRTAKEMNMTVLLKLLEAHRRTMENVNRQQR
notes: N-terminal BTB/POZ domain of CP190, Drosophila; source: E. coli BL21 (DE3)-pLysS, purified
[3]
  stoichiometry N: 2

B3: CP190-BTB/POZ-Cy5 (CP190-BTB/POZ Cy5-labelled on its N-terminal) (domain or fragment, Drosophila)
chain: B2 chain
modifications: Cy5 on the N-terminal
notes: N-terminal BTB/POZ domain of CP190, Drosophila; same construct as m4, labelled with Cy5; Same protein as m4 with a Cy5 label; source: E. coli BL21 (DE3)-pLysS, purified
[4]
  Kd: ~50 nM
